T1: Abp1, P15891
T1 sequence (P15891 535-592, looked up): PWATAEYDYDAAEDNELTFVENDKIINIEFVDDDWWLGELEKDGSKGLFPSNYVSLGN

T2: Bbc1, P47068
T2 sequence (P47068 1-78, looked up): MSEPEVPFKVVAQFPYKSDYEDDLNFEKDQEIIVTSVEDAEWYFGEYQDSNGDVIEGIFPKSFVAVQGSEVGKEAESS

T3: Boi1, P38041
T3 sequence (P38041 1-86, looked up): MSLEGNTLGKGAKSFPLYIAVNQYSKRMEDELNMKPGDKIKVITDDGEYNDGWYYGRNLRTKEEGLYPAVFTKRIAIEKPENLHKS

T4: Boi2, P39969
T4 sequence (P39969 32-116, looked up): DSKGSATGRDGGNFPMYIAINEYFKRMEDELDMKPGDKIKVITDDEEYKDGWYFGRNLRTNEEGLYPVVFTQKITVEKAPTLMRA

T5: Bud14, P27637
T5 sequence (P27637 247-328, looked up): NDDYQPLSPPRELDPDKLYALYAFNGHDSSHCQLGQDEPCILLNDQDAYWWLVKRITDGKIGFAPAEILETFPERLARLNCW

T6: Bzz1-1, P38822
T6 sequence (P38822 478-572, looked up): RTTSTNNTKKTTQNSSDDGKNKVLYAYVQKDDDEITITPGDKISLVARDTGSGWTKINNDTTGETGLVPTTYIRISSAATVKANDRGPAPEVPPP

T7: Bzz1-2, P38822
T7 sequence (P38822 568-633, looked up): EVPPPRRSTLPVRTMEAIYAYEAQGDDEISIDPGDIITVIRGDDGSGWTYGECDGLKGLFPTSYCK

T8: Cdc25, P04821
T8 sequence (P04821 50-136, looked up): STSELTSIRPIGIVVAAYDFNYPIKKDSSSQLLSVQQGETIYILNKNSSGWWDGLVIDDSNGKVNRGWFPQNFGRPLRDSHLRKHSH

T9: Cyk3, Q07533
T9 sequence (Q07533 1-83, looked up): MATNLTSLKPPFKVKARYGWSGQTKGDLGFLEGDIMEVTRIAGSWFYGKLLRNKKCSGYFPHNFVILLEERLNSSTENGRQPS

T10: Fus1, P11710
T10 sequence (P11710 432-512, looked up): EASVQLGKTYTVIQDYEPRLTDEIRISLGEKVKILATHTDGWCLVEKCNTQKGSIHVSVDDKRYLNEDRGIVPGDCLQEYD

T11: Hof1, Q05080
T11 sequence (Q05080 590-669, looked up): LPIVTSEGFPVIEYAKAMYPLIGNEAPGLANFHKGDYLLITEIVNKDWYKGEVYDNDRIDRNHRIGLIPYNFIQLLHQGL

T12: Hse1, P38753
T12 sequence (P38753 208-285, looked up): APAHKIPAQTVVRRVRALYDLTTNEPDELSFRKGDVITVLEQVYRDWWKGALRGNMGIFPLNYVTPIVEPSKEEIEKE

T13: Lsb1, P53281
T13 sequence (P53281 45-122, looked up): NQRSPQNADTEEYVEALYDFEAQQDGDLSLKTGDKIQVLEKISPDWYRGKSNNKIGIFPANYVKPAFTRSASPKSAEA

T14: Lsb3, P43603
T14 sequence (P43603 385-451, looked up): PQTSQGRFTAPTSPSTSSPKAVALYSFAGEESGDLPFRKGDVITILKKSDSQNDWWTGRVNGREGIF

T15: Lsb4, P32793
T15 sequence (P32793 402-468, looked up): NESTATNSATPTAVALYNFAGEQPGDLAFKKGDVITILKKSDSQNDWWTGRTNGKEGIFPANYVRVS

T16: Myo5, Q04439
T16 sequence (Q04439 1072-1160, looked up): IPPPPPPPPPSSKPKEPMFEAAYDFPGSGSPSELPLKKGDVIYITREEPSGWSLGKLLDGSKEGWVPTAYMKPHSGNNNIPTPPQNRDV

T17: Nbp2, Q12163
T17 sequence (Q12163 103-180, looked up): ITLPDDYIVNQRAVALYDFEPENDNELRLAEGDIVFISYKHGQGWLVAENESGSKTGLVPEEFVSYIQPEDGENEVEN

T18: Pex13, P80667
T18 sequence (P80667 295-386, looked up): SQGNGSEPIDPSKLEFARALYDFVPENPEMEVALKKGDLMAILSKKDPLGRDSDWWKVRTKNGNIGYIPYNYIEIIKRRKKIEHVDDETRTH

T19: Pin3, Q06449
T19 sequence (Q06449 53-122, looked up): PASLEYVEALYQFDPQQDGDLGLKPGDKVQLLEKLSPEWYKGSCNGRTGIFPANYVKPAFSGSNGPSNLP

T20: Sla1-2, P32790
T20 sequence (P32790 60-140, looked up): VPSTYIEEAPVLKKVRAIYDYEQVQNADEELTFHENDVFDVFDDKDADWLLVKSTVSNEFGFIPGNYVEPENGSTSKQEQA

T21: Sla1-3, P32790
T21 sequence (P32790 344-424, looked up): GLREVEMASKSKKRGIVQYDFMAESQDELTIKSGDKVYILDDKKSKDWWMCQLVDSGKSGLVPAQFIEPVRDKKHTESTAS


Tests used:
Experiment in all cases: SPOT array
Abp1, P15891 = target: T1, Abp1, P15891; details: median of control spots 935
Bbc1, P47068 = target: T2, Bbc1, P47068; details: median of control spots 796
Bem1-1, P29366 = details: median of control spots 4282
Sequence of Bem1-1, P29366 (P29366 55-141): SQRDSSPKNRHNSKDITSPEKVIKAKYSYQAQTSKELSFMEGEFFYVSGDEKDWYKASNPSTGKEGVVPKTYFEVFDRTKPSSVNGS

Bem1-2, P29366 = details: median of control spots 4347
Sequence of Bem1-2, P29366 (P29366 139-227): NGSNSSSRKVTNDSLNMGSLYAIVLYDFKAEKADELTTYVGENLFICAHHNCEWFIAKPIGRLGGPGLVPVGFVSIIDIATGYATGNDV

Boi1, P38041 = target: T3, Boi1, P38041; details: median of control spots 1162
Boi2, P39969 = target: T4, Boi2, P39969; details: median of control spots 1161
Bud14, P27637 = target: T5, Bud14, P27637; details: median of control spots 956
Bzz1-1, P38822 = target: T6, Bzz1-1, P38822; details: median of control spots 4446
Bzz1-2, P38822 = target: T7, Bzz1-2, P38822; details: median of control spots 4538
Cdc25, P04821 = target: T8, Cdc25, P04821; details: median of control spots 969
Cyk3, Q07533 = target: T9, Cyk3, Q07533; details: median of control spots 1451
Fus1, P11710 = target: T10, Fus1, P11710; details: median of control spots 1200
GST = details: median of control spots 978
Hof1, Q05080 = target: T11, Hof1, Q05080; details: median of control spots 4086
Hse1, P38753 = target: T12, Hse1, P38753; details: median of control spots 1727
Lsb1, P53281 = target: T13, Lsb1, P53281; details: median of control spots 388
Lsb3, P43603 = target: T14, Lsb3, P43603; details: median of control spots 406
Lsb4, P32793 = target: T15, Lsb4, P32793; details: median of control spots 397
Myo3, P36006 = details: median of control spots 468
Myo5, Q04439 = target: T16, Myo5, Q04439; details: median of control spots 471
Nbp2, Q12163 = target: T17, Nbp2, Q12163; details: median of control spots 357
Pex13, P80667 = target: T18, Pex13, P80667; details: median of control spots 1341
Pin3, Q06449 = target: T19, Pin3, Q06449; details: median of control spots 2171
Rvs167, P39743 = details: median of control spots 2707
Sequence of Rvs167, P39743 (P39743 419-482): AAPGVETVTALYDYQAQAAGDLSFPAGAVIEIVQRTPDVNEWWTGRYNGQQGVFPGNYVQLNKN

Sho1, P40073 = details: median of control spots 1148
Sequence of Sho1, P40073 (P40073 287-367): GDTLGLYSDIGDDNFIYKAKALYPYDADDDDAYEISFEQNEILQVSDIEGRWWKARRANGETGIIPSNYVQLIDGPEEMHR

Sla1-2, P32790 = target: T20, Sla1-2, P32790; details: median of control spots 712
Sla1-3, P32790 = target: T21, Sla1-3, P32790; details: median of control spots 5475

SPOT intensity (Abp1, P15891) | SPOT intensity (Bbc1, P47068) | SPOT intensity (Bem1-1, P29366) | SPOT intensity (Bem1-2, P29366) | SPOT intensity (Boi1, P38041) | SPOT intensity (Boi2, P39969) | SPOT intensity (Bud14, P27637) | SPOT intensity (Bzz1-1, P38822) | SPOT intensity (Bzz1-2, P38822) | SPOT intensity (Cdc25, P04821) | SPOT intensity (Cyk3, Q07533) | SPOT intensity (Fus1, P11710) | SPOT intensity (GST) | SPOT intensity (Hof1, Q05080) | SPOT intensity (Hse1, P38753) | SPOT intensity (Lsb1, P53281) | SPOT intensity (Lsb3, P43603) | SPOT intensity (Lsb4, P32793) | SPOT intensity (Myo3, P36006) | SPOT intensity (Myo5, Q04439) | further results | Binder
28 | 24 | 0 | 0 | 1 | 0 | 3 | 1 | 1 | 10 | 0 | 26 | 0 | 4 | 5 | 0 | 2 | 0 | 8 | 0 | SPOT intensity (Nbp2, Q12163): 0; SPOT intensity (Pex13, P80667): 4; SPOT intensity (Pin3, Q06449): 8; SPOT intensity (Rvs167, P39743): 2; SPOT intensity (Sho1, P40073): 64; SPOT intensity (Sla1-2, P32790): 1; SPOT intensity (Sla1-3, P32790): 29 | RSRRSSFAYPQQVAI
8 | 0 | 0 | 0 | 0 | 1 | 0 | 0 | 0 | 0 | 1 | 0 | 2 | 0 | 0 | 1 | 1 | 0 | 3 | 2 | SPOT intensity (Nbp2, Q12163): 0; SPOT intensity (Pex13, P80667): 1; SPOT intensity (Pin3, Q06449): 11; SPOT intensity (Rvs167, P39743): 0; SPOT intensity (Sho1, P40073): 13; SPOT intensity (Sla1-2, P32790): 0; SPOT intensity (Sla1-3, P32790): 0 | PSRRDSLSIPRAVDA
121 | 190 | 0 | 1 | 1 | 1 | 24 | 0 | 6 | 27 | 1 | 6 | 2 | 0 | 1 | 30 | 4 | 8 | 14 | 2 | SPOT intensity (Nbp2, Q12163): 2; SPOT intensity (Pex13, P80667): 3; SPOT intensity (Pin3, Q06449): 11; SPOT intensity (Rvs167, P39743): 1; SPOT intensity (Sho1, P40073): 120; SPOT intensity (Sla1-2, P32790): 1; SPOT intensity (Sla1-3, P32790): 20 | TKIRRRPQQPLTDFT
22 | 2 | 0 | 4 | 0 | 0 | 1 | 0 | 7 | 3 | 0 | 1 | 0 | 25 | 101 | 1 | 0 | 4 | 0 | 0 | SPOT intensity (Nbp2, Q12163): 2; SPOT intensity (Pex13, P80667): 3; SPOT intensity (Pin3, Q06449): 0; SPOT intensity (Rvs167, P39743): 0; SPOT intensity (Sho1, P40073): 29; SPOT intensity (Sla1-2, P32790): 0; SPOT intensity (Sla1-3, P32790): 24 | LSKRLPLRFPEHTSS

Reference: PMC2756588
